Patent US20130217572A1, “SPECIFIC DELIVERY OF AGROCHEMICALS” (VRIJE UNIVERSITEIT BRUSSEL, priority 2010, published 2013)

Columns and labels:
[1] = molecular target: T1, potato lectin (Sigma) (potato, UniProt Q9S8M0 23-323); experiment: microcapsule retention; H: amine capsules, BS3 one-step, 0.1 ug VHH/cm2; potato lectin coat 1 ug/ml; 10% coverage
T1 construct: Bought glycoprotein, coated on ELISA plates
T1 sequence (looked up): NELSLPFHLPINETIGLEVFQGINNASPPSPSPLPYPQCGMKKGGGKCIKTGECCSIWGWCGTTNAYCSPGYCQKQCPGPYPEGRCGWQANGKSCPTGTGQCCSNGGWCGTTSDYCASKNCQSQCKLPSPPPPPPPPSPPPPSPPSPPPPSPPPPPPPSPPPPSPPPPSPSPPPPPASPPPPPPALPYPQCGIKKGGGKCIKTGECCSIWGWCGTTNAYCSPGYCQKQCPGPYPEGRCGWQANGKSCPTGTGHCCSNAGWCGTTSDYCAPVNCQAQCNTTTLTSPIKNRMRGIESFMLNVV

[2] = molecular target: T1, potato lectin (Sigma); experiment: microcapsule retention; K: amine capsules, BS3 two-step, 1 ug VHH/cm2; potato lectin coat 10 ug/ml; 100% coverage
[3] = molecular target: T1, potato lectin (Sigma); experiment: microcapsule retention; L: amine capsules, BS3 two-step, 0.1 ug VHH/cm2; potato lectin coat 1 ug/ml; 10% coverage
[4] = molecular target: T1, potato lectin (Sigma); experiment: microcapsule retention; L: amine capsules, BS3 two-step, 0.1 ug VHH/cm2; potato lectin coat 1 ug/ml; 100% coverage
[5] = molecular target: T1, potato lectin (Sigma); experiment: microcapsule retention; L: amine capsules, BS3 two-step, 0.1 ug VHH/cm2; potato lectin coat 10 ug/ml; 10% coverage
[6] = molecular target: T1, potato lectin (Sigma); experiment: microcapsule retention; H: amine capsules, BS3 one-step, 0.1 ug VHH/cm2; potato lectin coat 100 ug/ml; 10% coverage
[7] = molecular target: T1, potato lectin (Sigma); experiment: microcapsule retention; H: amine capsules, BS3 one-step, 0.1 ug VHH/cm2; potato lectin coat 100 ug/ml; 100% coverage
[8] = molecular target: T1, potato lectin (Sigma); experiment: microcapsule retention; C: carboxyl capsules, EDC/Sulfo-NHS, 1 ug VHH/cm2; potato lectin coat 100 ug/ml; 10% coverage
[9] = molecular target: T1, potato lectin (Sigma); experiment: microcapsule retention; D: carboxyl capsules, EDC/Sulfo-NHS, 0.1 ug VHH/cm2; potato lectin coat 10 ug/ml; 100% coverage
[10] = molecular target: T1, potato lectin (Sigma); experiment: microcapsule retention; D: carboxyl capsules, EDC/Sulfo-NHS, 0.1 ug VHH/cm2; potato lectin coat 100 ug/ml; 10% coverage
[11] = molecular target: T1, potato lectin (Sigma); experiment: microcapsule retention; D: carboxyl capsules, EDC/Sulfo-NHS, 0.1 ug VHH/cm2; potato lectin coat 100 ug/ml; 100% coverage
[12] = system: potato leaf discs; experiment: VHH binding at different pH; parameters: species or system potato (variety Désirée); conditions: 5 μg/ml; whole range tested from pH 2 to pH 11
Protocol: In order to test applicability of VHH as binders for greenhouse or field applications where binding supposedly may occur at pH-values, deviating strongly from physiological conditions in which antibodies naturally bind their targets, a leaf dip VHH binding experiment was carried out in a series of solutions with different pH. The following solutions were prepared: 50 mM glycine pH 2.0, 50 mM sodium acetate pH 4.0, 50 mm sodium carbonate pH 9.6, and 10 mM sodium hydroxide pH 11.0. ø 8 mm potato leaf discs (variety Désirée) were cut using a puncher tool. The leaf discs were first equilibrated to the different pH by washing three times with solutions at different pH. Hexahistidine-tagged VHH were diluted to 5 μg/ml in solutions with different pH, added to the corresponding equilibrated leaf discs, and binding of VHH was allowed for 1 hour. After incubation with VHH, leaf discs were washed three times with solutions at the corresponding different pH. After that, all were washed two times with PBS to equilibrate leaf discs to PBS. Bound VHH were detected by incubation with monoclonal mouse anti-histidine antibodies directly conjugated with Alexa-488 fluorescent dye (Abd Serotec) in PBS for 1 hour. Unbound anti-histidine antibodies were removed by washing five times with PBS. Leaf discs were analyzed for bound VHH with microscopy.

[13] = system: gum arabic or potato lectin; experiment: Lambda cyhalothrin amounts in wells with bound microcapsules (GC/MS-MS); format: binding; conditions: VHH coupled to lambda cyhalothrin microcapsules
Protocol: In another experiment lambda cyhalothrin amounts were also determined analytically. 100 μl/well aceton was added to washed wells with bound microcapsules and transferred to glass vials with 10 ml of hexane containing 0.05% triphenylphosphate as internal standard. The amount of lambda cyhalothrin was determined by GC/MS-MS analysis in comparison with calibration solutions. Controls for lambda cyhalothrin microcapsules included blank microcapsules to which no VHH were coupled and microcapsules to which unrelated VHH were coupled. Controls also included wells to which no gum arabic or potato lectin was coated.

[14] = system: potato leaf discs; experiment: Leaf disc binding assay with VHH-coupled Uvitex microcapsules; parameters: species or system potato (variety Désirée)
Protocol: A leaf disc binding assay was used to evaluate the interaction of VHH-coupled microcapsules with potato, grass and azalea leaves. ø 8 mm leaf discs were sampled from the leaves of potato pot plants (variety Désirée), from the leaves of greenhouse-grown Lollium perenne and from the leaves of azalea pot plants. Leaf discs were washed three times with PBS. Microcapsules containing lambda cyhalothrin or Uvitex were diluted to appropriate densities in 1% skimmed milk in PBS with 0.05%-TWEEN®-20. Microcapsules were added to the leaf discs and settling of microcapsules and binding of targeting agents allowed for 1 hour. Unbound microcapsules were removed by washing three to five times with PBS with 0.05%-TWEEN®-20.
Leaf discs with Uvitex microcapsules were analyzed for bound microcapsules on a macrozoom microscope system (Nikon). Microcapsules were counted using Volocity image analysis software (Perkin Elmer). A DAPI filter was used to visualize Uvitex microcapsules. […]
A titration experiment was performed to investigate what dilution factor of microcapsules with specific VHH corresponds to an application of microcapsules to which no VHH were coupled to obtain similar amounts of microcapsules after an identical treatment. Two-fold serial dilutions of microcapsules were prepared and leaf disc binding was analyzed on potato leaf discs for these dilution series. […]

Molecule | microcapsule counts (microcapsules) [1] | microcapsule counts (microcapsules) [2] | microcapsule counts (microcapsules) [3] | microcapsule counts (microcapsules) [4] | microcapsule counts (microcapsules) [5] | microcapsule counts (microcapsules) [6] | microcapsule counts (microcapsules) [7] | microcapsule counts (microcapsules) [8] | microcapsule counts (microcapsules) [9] | microcapsule counts (microcapsules) [10] | microcapsule counts (microcapsules) [11] | binding to leaf discs at different pH [12] | increase of amounts of lambda cyhalothrin in wells coated with antigen ([13]; compared to blank microcapsules) [fold] | increase of amounts of lambda cyhalothrin in wells coated with antigen ([13]; over blank wells not coated with antigen) [fold] | binding and retaining of Uvitex microcapsules to leaf surfaces [14]
Control VHH | 36 | 903 | 116 | 860 | 186 | 225 | 622 | 55 | 475 | 125 | 515 | – | – | – | –
VHH 3E6 (VHH, also called Monovalent VHH 3E6) VHH: QVQLQESGGGLVQPGGTLSLSCAASGFNVRWYGMGWFRQAPGKEREGVACISALQETTAYADSVKGRFTLSRDNPKNTLSLQMNNLQPEDTGVYYCATTDCDDSSRMTYTSYLGQGTQVTVSS | – | – | – | – | – | – | – | – | – | – | – | showed detectable binding | 23 | 27 | capable of binding and retaining microcapsules specifically to leaf surfaces
